The source of these data is the supplement of paper PMC10567573.

Sequences and labels used below:
B1: KIAA0774 (parent)
chain: FEDEVKRLGWQQQAELQELEERLQ
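Further: lentivirally expressed fusions sorted by FACS into six bins by GFP to DsRed ratio, PSI derived from sequencing read proportions per bin multiplied by bin number.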

The variants in this data set derive from B1. The data set can be described thus: protein stability index of a GFP-peptide fusion (GPS, HEK-293T) (PSI 1-6); higher = more stable. Particulars: c terminus: a fixed tail appended.
With FEDEVKRLGWQQQAELQVLEERLQ [E18V], the protein stability index is 3.84.
Turning to FEDEVKRLGWQQQAELQQLEERLQ [E18Q], the protein stability index worked out at 3.91.
Turning to FEDEVKRLGWQQQAELQFLEERLQ [E18F], the protein stability index was found to be 2.13.
The value for FGDEVKRLGWQQQAELQELEERLQ [E2G] was 3.14.
Regarding FVDEVKRLGWQQQAELQELEERLQ [E2V], the protein stability index stood at 2.21.
The value for FNDEVKRLGWQQQAELQELEERLQ [E2N] was 2.5.
Take FPDEVKRLGWQQQAELQELEERLQ [E2P]: the protein stability index turned out to be 3.16.
Next, FCDEVKRLGWQQQAELQELEERLQ [E2C]: 2.71; FEFEVKRLGWQQQAELQELEERLQ [D3F]: 2.72.
The value for FEKEVKRLGWQQQAELQELEERLQ [D3K] was 2.03; that for FEEEVKRLGWQQQAELQELEERLQ [D3E] was 3.86.
The value for FECEVKRLGWQQQAELQELEERLQ [D3C] was 2.3; that for FEVEVKRLGWQQQAELQELEERLQ [D3V] was 2.76; that for FEDEVKRLIWQQQAELQELEERLQ [G9I] was 3.73.
Turning to FEDEVKRLTWQQQAELQELEERLQ [G9T], the protein stability index worked out at 2.04.
Next, FEDEVKRLQWQQQAELQELEERLQ [G9Q]: 3.83.
Next, FEDEVKRLDWQQQAELQELEERLQ [G9D]: 3.9; FEDEVKRLAWQQQAELQELEERLQ [G9A]: 3.83.
Turning to FEDEVKRLPWQQQAELQELEERLQ [G9P], the protein stability index was determined as 4.17.
Next, FEDEVKRLYWQQQAELQELEERLQ [G9Y]: 4.13.
The value for FEDEVKRLWWQQQAELQELEERLQ [G9W] was 3.54; that for FEDEVKRLVWQQQAELQELEERLQ [G9V] was 4.02; that for FEDEVKRLGWQQQAELQEREERLQ [L19R] was 3.68.
Next, FEDEVKRLGWQQQAELQEVEERLQ [L19V]: 4.53; FEDEVKRLGWQQQAELQEWEERLQ [L19W]: 3.92.
Take FEDEVKRLGWQQQAELQEPEERLQ [L19P]: the protein stability index is 5.42.
Next, FEDEVKRLGWQQQAALQELEERLQ [E15A]: 2.74.
The value for FEDEVKRLGWQQQAILQELEERLQ [E15I] was 2.64; that for FEDEVKRLGWQQQAHLQELEERLQ [E15H] was 3.53; that for FEDEVKRLGWQQQALLQELEERLQ [E15L] was 3.13.
As to FEDEVKRLGWQQQAELQELGERLQ [E20G], the protein stability index came out at 3.05.
The value for FEDEVKRLGWQQQAELQELQERLQ [E20Q] was 3.9; that for FEDEVKRLGWQQQAELQELCERLQ [E20C] was 4.34.
For FEDEVKRLGWQQQAELQELEARLQ [E21A], the protein stability index stood at 4.69.
The value for FEDEVKRLGWQQQAELQELECRLQ [E21C] was 4.38.
As for FEDEVKRLGWQQQAELQELESRLQ [E21S], the protein stability index turned out to be 4.17.
Next, AEDEVKRLGWQQQAELQELEERLQ [F1A]: 4.11; IEDEVKRLGWQQQAELQELEERLQ [F1I]: 3.86; NEDEVKRLGWQQQAELQELEERLQ [F1N]: 4.32.
The value for FEDEVKVLGWQQQAELQELEERLQ [R7V] was 3.9; that for FEDEVKQLGWQQQAELQELEERLQ [R7Q] was 4.79; that for FEDEVKNLGWQQQAELQELEERLQ [R7N] was 4.12.
On to FEDEVKWLGWQQQAELQELEERLQ [R7W], for which the protein stability index worked out at 4.03.
Take FEDEVKPLGWQQQAELQELEERLQ [R7P]: the protein stability index was 4.19.
The value for FEDEVKGLGWQQQAELQELEERLQ [R7G] was 4.9; that for FEDEVKFLGWQQQAELQELEERLQ [R7F] was 4.32; that for FEDEVKRLGWQQAAELQELEERLQ [Q13A] was 4.31.
Next, FEDEVKRLGWQQEAELQELEERLQ [Q13E]: 5.03; FEDEVKRLGWQQIAELQELEERLQ [Q13I]: 3.44; FEDEVKRLGWQQTAELQELEERLQ [Q13T]: 3.74.
The value for FEDEVKRLGWQQRAELQELEERLQ [Q13R] was 2.99; that for FEDEVKRLGWQQVAELQELEERLQ [Q13V] was 3.86.
FEDEVKRLGWQQQAELQELEERHQ [L23H]: the protein stability index is 4.53.
Next, FEDEVKRLGWQQQAELQELEERVQ [L23V]: 4.65; FEDEVKRLGWQQQAELQELEERNQ [L23N]: 4.42.
Next, FEDEVKRLGWQQQAELQELEERGQ [L23G]: 4.58; FEDEVKRLGWQQQAELQELEERMQ [L23M]: 4.03; FEDEVKRLGWQQQAELQELEERKQ [L23K]: 4.16.
The value for FEDEVKRLGWQQQAELQELEEREQ [L23E] was 4.65; that for FEDEVKRLGWQQQAELQELEERSQ [L23S] was 4.91.
In the case of FEDIVKRLGWQQQAELQELEERLQ [E4I], the protein stability index came to 3.19.
The value for FEDCVKRLGWQQQAELQELEERLQ [E4C] was 2.93.
FEDAVKRLGWQQQAELQELEERLQ [E4A]: the protein stability index came out at 2.75.
Take FEDFVKRLGWQQQAELQELEERLQ [E4F]: the protein stability index is 3.38.
Next, FEDKVKRLGWQQQAELQELEERLQ [E4K]: 2.97.
The value for FEDYVKRLGWQQQAELQELEERLQ [E4Y] was 3.64; that for FEDEVKRLGWQQQAELCELEERLQ [Q17C] was 4.01; that for FEDEVKRLGWQQQAELAELEERLQ [Q17A] was 4.22.
Next, FEDEVKRLGWQQQAELFELEERLQ [Q17F]: 3.98; FEDEVKRLGWQFQAELQELEERLQ [Q12F]: 2.78.
With FEDEVKRLGWQQQAELQELEERLI [Q24I], the protein stability index worked out at 3.41.
In the case of FEDEVKRLGWQQQAELQELEERLF [Q24F], the protein stability index is 3.28.
The value for FEDEVKRLGWQQQAELQELEERLL [Q24L] was 3.48.
Next, FEDEVKRLGWQQQAELQELEERLC [Q24C]: 4.22; FEDEVKRLGWQQQAELQELEERLD [Q24D]: 3.98.
The value for FEDEVKRLGWDQQAELQELEERLQ [Q11D] was 5.16; that for FEDEVKRLGWAQQAELQELEERLQ [Q11A] was 3.64; that for FEDEVKRLGWTQQAELQELEERLQ [Q11T] was 3.3.
Take FEDEVKRLGWNQQAELQELEERLQ [Q11N]: the protein stability index was found to be 4.52.
Next, FEDEVKRLGWQQQAEPQELEERLQ [L16P]: 5.24; FEDEVKRLGWQQQAEKQELEERLQ [L16K]: 4.88; FEDEVNRLGWQQQAELQELEERLQ [K6N]: 4.16.
Next, FEDEVKRLGWQQQAELQELEETLQ [R22T]: 4.83; FEDEVKRLGWQQQAELQELEEILQ [R22I]: 4.06.
The value for FEDEVKRLGWQQQAELQELEEVLQ [R22V] was 3.77.
On to FEDEVKRLGCQQQAELQELEERLQ [W10C], for which the protein stability index amounted to 4.97.
The value for FEDEVKRLGDQQQAELQELEERLQ [W10D] was 5.8.
Next, FEDEVKRLGTQQQAELQELEERLQ [W10T]: 5.13.
Next, FEDEMKRLGWQQQAELQELEERLQ [V5M]: 4.19; FEDESKRLGWQQQAELQELEERLQ [V5S]: 3.47.
Turning to FEDEQKRLGWQQQAELQELEERLQ [V5Q], the protein stability index was 4.13.
The value for FEDERKRLGWQQQAELQELEERLQ [V5R] was 2.75; that for FEDEVKRRGWQQQAELQELEERLQ [L8R] was 4.05; that for FEDEVKRTGWQQQAELQELEERLQ [L8T] was 3.93.
